Literature values as cited in article PMC4652184.

Target: Slit2 (Homo sapiens) (UniProt O94813)
Sequence (O94813 31-1529): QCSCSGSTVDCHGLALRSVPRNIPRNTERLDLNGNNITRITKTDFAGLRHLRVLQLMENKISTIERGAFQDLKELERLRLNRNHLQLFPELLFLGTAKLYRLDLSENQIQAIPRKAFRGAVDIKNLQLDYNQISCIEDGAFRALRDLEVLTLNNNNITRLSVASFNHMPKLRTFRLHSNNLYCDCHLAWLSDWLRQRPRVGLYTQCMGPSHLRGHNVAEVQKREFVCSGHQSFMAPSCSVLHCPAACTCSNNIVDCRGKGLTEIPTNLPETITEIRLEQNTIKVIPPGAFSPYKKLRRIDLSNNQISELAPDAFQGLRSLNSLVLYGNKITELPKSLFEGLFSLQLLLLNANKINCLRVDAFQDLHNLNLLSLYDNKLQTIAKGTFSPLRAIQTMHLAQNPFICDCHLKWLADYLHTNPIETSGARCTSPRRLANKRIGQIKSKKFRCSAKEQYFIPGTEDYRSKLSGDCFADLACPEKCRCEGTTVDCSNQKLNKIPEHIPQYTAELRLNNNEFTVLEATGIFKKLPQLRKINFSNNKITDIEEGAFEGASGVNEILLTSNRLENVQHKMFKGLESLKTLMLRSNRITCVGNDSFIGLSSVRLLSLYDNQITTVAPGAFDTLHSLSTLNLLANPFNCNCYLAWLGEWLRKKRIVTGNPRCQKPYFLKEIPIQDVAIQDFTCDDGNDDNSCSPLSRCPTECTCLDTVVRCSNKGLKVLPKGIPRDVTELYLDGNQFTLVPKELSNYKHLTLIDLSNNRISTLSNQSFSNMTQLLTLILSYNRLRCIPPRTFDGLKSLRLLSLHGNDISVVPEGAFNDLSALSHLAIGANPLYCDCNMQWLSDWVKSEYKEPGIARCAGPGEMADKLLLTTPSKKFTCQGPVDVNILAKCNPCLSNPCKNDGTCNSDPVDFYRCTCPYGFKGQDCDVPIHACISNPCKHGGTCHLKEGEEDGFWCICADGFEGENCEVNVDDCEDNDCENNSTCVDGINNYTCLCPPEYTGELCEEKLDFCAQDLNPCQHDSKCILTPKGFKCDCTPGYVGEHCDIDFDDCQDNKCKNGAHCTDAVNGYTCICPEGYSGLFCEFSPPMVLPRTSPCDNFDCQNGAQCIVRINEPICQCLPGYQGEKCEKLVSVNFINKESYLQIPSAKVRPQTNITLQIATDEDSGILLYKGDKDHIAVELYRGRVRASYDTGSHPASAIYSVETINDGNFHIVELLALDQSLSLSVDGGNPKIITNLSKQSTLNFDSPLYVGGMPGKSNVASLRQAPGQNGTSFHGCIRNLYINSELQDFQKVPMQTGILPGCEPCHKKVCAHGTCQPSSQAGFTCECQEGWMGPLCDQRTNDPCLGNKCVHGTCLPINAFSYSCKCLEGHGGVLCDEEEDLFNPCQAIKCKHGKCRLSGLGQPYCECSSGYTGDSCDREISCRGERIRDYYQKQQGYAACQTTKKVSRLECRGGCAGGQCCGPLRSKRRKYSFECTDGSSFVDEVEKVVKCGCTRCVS

Chain of Robo1 (Q9Y6N7 26-897): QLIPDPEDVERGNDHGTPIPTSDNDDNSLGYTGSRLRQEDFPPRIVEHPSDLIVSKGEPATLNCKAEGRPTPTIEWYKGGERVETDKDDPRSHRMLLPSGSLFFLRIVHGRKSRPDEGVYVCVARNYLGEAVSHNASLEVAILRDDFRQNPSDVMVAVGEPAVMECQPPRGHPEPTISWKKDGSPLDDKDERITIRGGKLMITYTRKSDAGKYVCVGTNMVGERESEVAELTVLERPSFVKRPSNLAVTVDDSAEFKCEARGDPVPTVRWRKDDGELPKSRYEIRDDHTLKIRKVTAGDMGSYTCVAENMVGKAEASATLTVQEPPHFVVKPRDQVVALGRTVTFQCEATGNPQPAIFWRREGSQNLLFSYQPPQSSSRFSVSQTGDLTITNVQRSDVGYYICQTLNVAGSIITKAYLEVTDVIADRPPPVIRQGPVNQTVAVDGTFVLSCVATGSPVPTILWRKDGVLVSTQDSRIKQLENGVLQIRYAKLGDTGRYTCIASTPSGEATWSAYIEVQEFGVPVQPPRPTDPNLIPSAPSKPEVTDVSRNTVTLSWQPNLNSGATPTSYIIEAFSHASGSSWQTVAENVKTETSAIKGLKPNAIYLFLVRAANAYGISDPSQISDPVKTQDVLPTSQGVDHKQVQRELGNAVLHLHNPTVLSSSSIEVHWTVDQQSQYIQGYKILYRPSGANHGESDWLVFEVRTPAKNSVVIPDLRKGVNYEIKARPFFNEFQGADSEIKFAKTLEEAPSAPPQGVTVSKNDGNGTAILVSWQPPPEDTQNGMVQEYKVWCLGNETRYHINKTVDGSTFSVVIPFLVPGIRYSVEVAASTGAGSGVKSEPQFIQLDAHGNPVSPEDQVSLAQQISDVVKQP

In the case of Robo1 (from UniProt Q9Y6N7), the Kd is listed as 4.5 nM.
